From the DeepSol protein solubility set

assay: soluble on expression in E. coli; label from the status in PepcDB or PDB records

Row | Sequence | soluble on expression in E. coli
1 | MEPAAGFLSPRPFQRAAAAPAPPAGPGPPPSALRGPELEMLAGLPTSDPGRLITDPRSGRTYLKGRLLGKGGFARCYEATDTETGSAYAVKVIPQSRVAKPHQREKILNEIELHRDLQHRHIVRFSHHFEDADNIYIFLELCSRKSLAHIWKARHTLLEPEVRYYLRQILSGLKYLHQRGILHRDLKLGNFFITENMELKVGDFGLAARLEPPEQRKKTICGTPNYVAPEVLLRQGHGPEADVWSLGCVMYTLLCGSPPFETADLKETYRCIKQVHYTLPASLSLPARQLLAAILRASPRDRPSIDQILRHDFFTKGYTPDRLPISSCVTVPDLTPPNPARSLFAKVTKSLFGRKKKSKNHAQERDEVSGLVSGLMRTSVGHQDARPEAPAASGPAPVSLVETAPEDSSPRGTLASSGDGFEEGLTVATVVESALCALRNCIAFMPPAEQNPAPLAQPEPLVWVSKWVDYSNKFGFGYQLSSRRVAVLFNNGTHMALSANRKTVHYNPTSTKHFSFSVGAVPRALQPQLGILRYFASYMEQHLMKGGDLPSVEEVEVPAPPLLLQWVKTDQALLMLFSDGTVQVNFYGDHTKLILSGWEPLLVTFVARNRSACTYLASHLRQLGCSPDLRQRLRYALRLLRDRSPA | soluble
2 | MEPDIEPWDRFRDWLHCICVVTFDLELGQALEVIYPGDAILSNTEKINICYLAFPDSNSSNARDTNFHFRIRRAISDVRDCQKSFVDKSPTSLPFDTHYLYGFVHFRQCKDPTIHRGYYQKSIVLMSVLPLFSLFYSVTARIAEHFFESGEAAIEAACHHIDTWQQPHAGRTIELPLLGTLISCRLPAACDLPYEFRLDGHVELSDDDSQRLVRPDFTTSIVQHVHHLPLLWELVLLGEPLLIVAPTPSITSALVQSIVGLLSPLRIVNDFRPYFTIHDSEFREYSSKSRSPPRVILGVTNPFFIKALDHWPHILKVAEQGAEIGGDDMKKPKKTWSSSRTLDTPAGLYTQYKPFLSKDKSLAKKLLRSGNSLEVQHNILQRHFLELTHSFMIPMERYLSSLMPLKKEMSPFKGIPSTRPFSMDDFLATLETNGGPSLTCGTKGDWQGLYRRFITCSNFGGWLSMRSRDVNAQLKTHYVEALCSADFCSQTLATKHNVEIVDLVLRIRERIIECPPDTEIRRNLVRQVVKILSNVDDDLKQLLMSNCSLREILA | not soluble
3 | MEPDLKNVKNAGTGESNKDEIKNTNASRRSGRKVKTIIEEDPNINKKMELPPTLMPKFPSQKIIKQQKSPDKNEPPPARPVEQTEENEENNADEKEKHEIFWQEGVIEECQGREDEGEVPKEQEEHAHVSPDPTSLNDKKSKFEKPNLEPGKPEKPEKLDKPLAKPLPPPSAAPPPVAPLSAPVPSTGAPPSAVPPADKKMSKQSTRDKKSGRSTDRNIHKKKDVAALDENKKSPEDKKKDAGTKKGSTEDASTDNLNNGKVQSRRKSKRQKKSIFQQPVQRTPGSHPSAYLQPTRARTERSLKLPPAEPKSVDERPRKPSTQILQPQQPNRGGQVQKQPSKVVLQPGAPGATPVASTPNQREQAQQQQQQQQKGPMGLFKKIYRKMNFRAASDCTVEPTKEMLAKSYVRPEHNSNDPIDFCPDLPKKLFDEEAWKLRMTNKGANRNEVFLNNRPFWLTRDGTEQIPKVRIQLHRPLKQMHSGNPASIQLKLQRTDPFLDPKEDTLERLKIVDKAIGVDPLDLTKDRELKRVCANTFHGTLMFEVDKRQYDTQQKKAEAEALKLDPKRKNDGKEKDQKSSFEDPKKVAFNVSDKCTLHVYFRKHRPLTNQGKSERFTEKKYTMGERKIMKKGEKPAVPQLVPPTSSSTTSASSSSCRETKKL | not soluble
4 | MEPPLWVFGYGSLIWDPGFPVARSVIARLDGWHRSFCMHSIHYRGTATDPGLVLALDAAPGGACLGVGFQVTPGAEAETLAALRKRELISNAYLERWLPVTLATGETVEAVSYVIDPDHGQYCGGLDLEAQAQIIARAAGERGPNRDYLLHTVAHLQSLGISDPDLCWLATRVRALGNDPVSAAALEHHHHHH | not soluble
5 | MEQAPPDPEKLLQPGPLEPLGGPGAVLEAAVGEENEGTREDGSGVDTMTGNNFWLKKIEISVSEAEKRTGRNAVNMQETYTAYLIETRSVEHADGQSVLTDSLWRRYSEFELLRNYLLVYYPHVVVPPLPEKRAEFVWHKLSADNMDPDFVERRRVGLENFLLRVASHPVLCRDKIFYSFLTQEGNWKETVNETGFQLKADSRLKALNATFRVKNPDKRFTELRHYSDELQSVISHLLRVRARVADRLYGVYKVHGNYGRVFSEWSAIEKEMGDGLQSAGHHMDVYASSIDDILEDEEHYADQLKEYLFYAEALRAVCRKHELMQYDLETAAQDLAAKKQQCEELATGTVRTFSLKGMTTKLFGQETPEQREARIKVLEEQINEGEQQLKSKNLEGREFVKNAWADIERFKEQKNRDLKEALISYAVMQISMCKKGIQVWTNAKECFSKM | soluble
6 | MEQEQRGMAALLSKFRIDYSDVYVIADIGKKPRQETMNTWQSVIDPFIAQDGSCPIGMTTKSELSAQRDKTYRQLRAGELLNEHSINADLIVMTLPVPRKGMVSSSLYMSWLEVMTRNLPPVLLVRGNQQSVNTSSSSTASSPHHLIIPALAINPHLKVFPSHISLKCFFFFRFLLKAYAAAVHPPSRFLCYMKKVTDSIFVSLMNNSRLYCLL | not soluble
7 | MEQHVIEFLTTTLDDLKAQDILAIDVRGKSSITDTMIIATGTSVRHVASTAERLITEAKKAGVQVLGEEGRAVADWVVVDFGQAIVHLLQADARELYQLEKLWRLEHHHHHH | not soluble
8 | MEQLTKNQRKKRDEIEAGKSYCSRRFGGATCDDKSAQIYARFDKNDWRIQPAEFYRFHDAEVNTFGYF | soluble
9 | MEQLYPAPIKTVEEGSPAARAGVRPGDVLLRVNGQPVTDVLAYRHQLERGVVTLEVARPHEAPRVMTGVLEHHHHHH | not soluble
10 | MEQSQRTQLSYEGAKSVIRFMSIEKRIQIHCRIPYYRKTNALFPYAHRQMTLSSDGISIGSNHYTFDIRRSNFGRRFRDDFGGESDEEPEAAPLEPALAELNLRDRARREREILREEHYQREDDERLRAQQNQVHIRYGETQYEVRRNFGQRRNPEEAFIKLFDAYISTGTTIEKLLFTGFPKFLKKRDPSKLQFKVRELKLSSLRDRTLEKIVPFIGASKLKKMNLDVGPDTISYLDLPMIKNCEVLNLNISMWNERNRQRNENNNFSKLSNLRNMKLNLILERFTIDDLQRLALNWIFTRRPIGTYFKTGVNQQYDHILDIFDRLIEENRASRCRITKLGTVYFANGVKLSIDGKSELVVYGGPKWKTRAGIDGQWTIHMEVMAVGDTTPSA | not soluble
11 | MEQVFAPWRIEWVERDDTTDDDVDCVFCAFPGREHARQHLVVARTDHAAVMLNNYPYNPGHCMVIPDVHTGDYGDLDADTLLDHARLKQATLDALDAALGPDAFNTGLNLGGGAAGGSIGDHLHTHVVPRWNGDTNFMPVISDTKVIVEALDDTYDRLHDAFLARPDATEAPTGAVFVDFNLEHHHHHH | not soluble
12 | MERECEESVVVAVVTEPRFTQRYRDYLEEQKLLDRLHRVAKLRDGAVALPVLAESLSEQHLQELRDRVAPGSTCVLTRLPDPLPSKKARVRSPAQILCLEVRRWVEDRGVTWSAELEADLPRSWQRHGDLMLLSEDCFQATLWKGLEPELWETVASALGVQRLAKRGRVLPDGTRTPSVTLLLGDHGWVEHMDNGIRYKFDVTQCMFSFGNITEKLRVASLSCAGEVLVDLYAGIGYFTLPFLVHAGAAFVHACEWNPHAVVALRNNLEINGVADRCQIHFGDNRKLKLSDIADRVNLGLIPSSKEGWPVACQVLRKDVGGILHIHQNVESFSGKTPQPPGSNNVEKEHWPRPQKITTDTQGNGTTENFRGEISSANKPEWWRWAESAETQIASLLHQVHGKPWRTRILHVHPVKSYAPHVDHIVLDLECRPLTSSWPEGVDLLTQ | soluble
13 | MERETPKTPTPTPYTNIYAALNNKKTNDEVASKVTEELNKLKIAEEKDNKIVSREKPEMMSLNTLVEMCSAGEKPTKGKSEKDIRKKKAPVLVDDNQSYVMIGPPSEPVEPPATLSTETSKTNAIEESTVKRSEALSAYIGVATLNDAENHLTRRGEFALYHLFNPNGRLDTITEKLPLMIVYRTTTKKNRHYSIRTTCDQQFFVDCGYPNVRKHYSLNHLVKFYKVRILLPDTIQKQQLTDILQILKQFQTSATCEINPYDTSADSFSWWLE | soluble
14 | MERIAMNPLMQQAIQFANDHETAWDRSVRGNFGVHLDDPPPWNRLLGPVHDRGPVSGVVVVDGQTLASWGEPERADLTFSVAKLYLSILAGVAHDRGLLPDVDEPVGRRVPGIGFDAGRNARITWRHLLQQTSEWEGERFGVPDQADRYRAVAFGIPPDGRKGDARPLQEPGTYWEYNDVRINQLSYALLHLFRRPLPEVFREAVTRPLGASEDWQWVGYDNAWVDIDGVRMPSVPGGTHWGGGMSISARDQALIGRMLLDEGRAADGRQVLSPAWIQAMRTPCDIAPYYGYLIWLNHERKVFPSVPASSFFGIGAGSSFTWVEPERRMVVIVRWLDAAYADALFGRILAAVDAHRAGLEHHHHHH | not soluble
15 | MERQVFIRLRHRLEADPDELILLGHIAQVAGDRGYKEKLERLPIYQVSKADQSMVVLDVMKVIEAVHKSFPDLDVQTVGGSETIVEIQYPKRDLSP | soluble
16 | MERRKDTEVALAQRDTILQTILDASPDSIGIFNENMVYQACNKPFVNALGISEVSDLIGKRLQDVIPVEMYTRLETSDLHALRQAEPVRYIDKVVSSDGHITWFDVVKSPFKDKASGTNGVLIMARDIS | not soluble
17 | MERRLGVRAWVKENRGSFQPPVCNKLMHQEQLKVMFVGGPNTRKDYHIEEGEEVFYQLEGDMVLRVLEQGKHRDVVIRQGEIFLLPARVPHSPQRFANTVGLVVERRRLETELDGLRYYVGDTMDVLFEKWFYCKDLGTQLAPIIQEFFSSEQYRTGKPIPDQLLKEPPFPLSTRSIMEPMSLDAWLDSHHRELQAGTPLSLFGDTYETQVIAYGQGSSEGLRQNVDVWLWQLEGSSVVTMGGRRLSLAPDDSLLVLAGTSYAWERTQGSVALSVTQDPACKKPLGLEHHHHHH | not soluble
18 | MERSLDSLAGMAKSAFGAGTSAAMRQATSPKTILEYIINFFTCGGIRRRNETQYQELIETMAETLKSTMPDRGAPLPENIILDDMDGCRVEFNLPGENNEAGQVIVRVSKGDHSETREIPLASFEKICRALLFRCEFSLPQDSVILTAQGGMNLKGAVLTGANLTSENLCDADLSGANLEGAVLFMADCEGANFKGANLSGTSLGDSNFKNACLEDSIMCGATLDHANLTGANLQHASLLGCSMIECNCSGANMDHTNLSGATLIRADMSGATLQGATIMAAIMEGAVLTRANLRKASFISTNLDGADLAEANLNNTCFKDCTLTDLRTEDATMSTSTQTLFNEFYSENI | not soluble
19 | MESENIISAADKARILAEALPYIRRFSGSVAVIKYGGNAMTEPALKEGFARDVVLLKLVGIHPVIVHGGGPQINAMLEKVGKKGEFVQGMRVTDKEAMDIVEMVLGGHVNKEIVSMINTYGGHAVGVSGRDDHFIKAKKLLIDTPEQNGVDIGQVGTVESIDTGLVKGLIERGCIPVVAPVGVGEKGEAFNINADLVAGKLAEELNAEKLLMMTNIAGVMDKTGNLLTKLTPKRIDELIADGTLYGGMLPKIASAVEAAVNGVKATHIIDGRLPNALLLEIFTDAGIGSMILGGGEDA | not soluble
20 | MESTSTTVPSIVVYVTVPNKEAGKRLAGSIISEKLAACVNIVPGIESVYWWEGKVQTDAEELLIIKTRESLLDALTEHVKANHEYDVPEVIALPIKGGNLKYLEWLKNSTRES | soluble
21 | MESVRRGKLMKNKKIKFDVYLNGIAYHCIKCGFCCDAPTVTKKDLAKIAGYLKIPFDEVLKRYVRFFNGYIGELKEVGGKCIFLDKKTKKCKIYKVRPLICRLRPYSVQVRNGKLTLTYDIWFLRYCRGLYLGDGKVEDEYFKYAELVLKYLGFEEGVDEEEFKRAKERLLEESLKYRKKKDLEHHHHHH | soluble
